Experimental data taken from patent US20250388694A1.

Biological target: Human TCTP (translationally controlled tumor protein) (human) (UniProt P13693)
Assay: SPR, Biacore 8K, human TCTP immobilised on CM5 chip, antibody as analyte, 1:1 model

Chain of Human TCTP (translationally controlled tumor protein) (human) (P13693 whole entry): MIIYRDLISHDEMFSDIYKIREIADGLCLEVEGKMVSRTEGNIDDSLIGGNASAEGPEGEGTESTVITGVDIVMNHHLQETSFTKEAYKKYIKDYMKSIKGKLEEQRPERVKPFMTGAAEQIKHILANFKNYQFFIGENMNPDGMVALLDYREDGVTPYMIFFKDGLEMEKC

Kd: 263 nM
B1: 55F3 (antibody, from another filing, V domains shown)
VH: DVQLQESGPGLVKPSQSLSLTCTATGYSIASDYAWNWIRQFPGNKLEWMGYINYSGSTGYNPSLKSRISITRDTSKNQFFLQLNSVTTEDTATYYCARFEAGYWGQGTTLTVSS
VL: DIKMTQSPSSMSASLGERVTITCKASQDINRYLSWFQQKPGKSPKTLIYRANRLVDGVPSRFSGSGSGQDYSLTISSLEYGDMGIYYCLQYNEFPLTFGAGTKLELKR
